Patent publication US20090029421, “Recombinase polymerase amplification” (published 2009)

Assays:
Experiment in all cases: competition; excess ssDNA oligo titrates gp32 off probe
Settings in all cases: tags: C-terminal His6
gp32 (Aeh1) = molecular target: T1, gp32 (Aeh1) (Aeromonas phage Aeh1)
T1 chain: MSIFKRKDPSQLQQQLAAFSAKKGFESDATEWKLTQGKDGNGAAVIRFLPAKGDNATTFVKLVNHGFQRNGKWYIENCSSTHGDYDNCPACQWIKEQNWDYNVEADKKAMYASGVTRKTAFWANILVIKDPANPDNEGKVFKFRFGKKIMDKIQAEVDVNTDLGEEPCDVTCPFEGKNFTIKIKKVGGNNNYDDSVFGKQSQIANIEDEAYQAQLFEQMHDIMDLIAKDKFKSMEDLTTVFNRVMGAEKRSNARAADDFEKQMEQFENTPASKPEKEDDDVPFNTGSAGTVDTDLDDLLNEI
Description: (§1) In this experiment, the effects of these challenges on Rb69 gp32, T4 gp32 and Aeh1 gp32 were compared.
(§2) An experiment was performed to assess whether gp32 molecules from different species of origin were biochemically distinct from one another. Experimental conditions were as follows: reactions were performed in 50 ul volume; final concentration of probe (SA-Tamra2; 5′-tgttaattgagcaagtgtatagagcattraygabtatgcgtggag-3′ (SEQ ID NO:126), here y=thf, b=BHQ2-dT, r=TAMRA-dT, 3′=Bio-TEG) was 100 nM; Rb69 pg32 was used at final concentration of 80 ng/μl, Nfo was present at 33 ng/μl; after 350 sec either water, dsDNA (550 ng human genomic DNA; i.e. approximately 10× mass of oligonucleotide probe) or ssDNA ([…] oligonucleotide of sequence 5′[…]-3′ (SEQ ID NO:127)) was added; buffer conditions were 20 mM Tris-acetate, 50 mM potassium acetate (pH 7.9), 10 mM Magnesium Acetate, 1 mM Dithiothreitol. Measurements were made in a fluorometer manufactured by Embedded System Engineering (ESE, GmbH) with LED excitation of 520 nm and emission at 585 nm.
(§3) Initially, a concentration of gp32 was established which permitted only a very low cutting activity by Nfo nuclease on the fluorophore/quencher probe. At this concentration the availability of gp32 was limited to a minimal quantity for substantial probe protection, and under these conditions it was possible to assess very sensitively whether gp32 was partitioned away from the probe in competition experiments. After monitoring the slow probe cutting for a while, excess double-stranded DNA or single-stranded oligonucleotides were added to assess whether this affected the distribution of gp32 on the probe. […] Clearly Rb69 and Aeh1 gp32 molecules differentiated and partitioned much more effectively in favour of single-stranded DNA than T4 gp32.

gp32 (Rb69) = molecular target: T2, gp32 (Rb69) (Enterobacteria phage RB69)
T2 chain: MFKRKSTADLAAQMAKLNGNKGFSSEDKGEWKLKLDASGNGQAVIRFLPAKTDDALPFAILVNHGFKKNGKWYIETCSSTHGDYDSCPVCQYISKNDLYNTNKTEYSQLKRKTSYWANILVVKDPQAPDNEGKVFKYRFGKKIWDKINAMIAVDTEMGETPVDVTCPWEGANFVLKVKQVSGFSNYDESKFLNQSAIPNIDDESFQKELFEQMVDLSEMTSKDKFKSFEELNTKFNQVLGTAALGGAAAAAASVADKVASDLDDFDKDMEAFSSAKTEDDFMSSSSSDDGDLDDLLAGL
Description: as §1, §2, §3

gp32 (T4) = molecular target: T3, gp32 (T4) (Enterobacteria phage T4, UniProt P03695 SEQ:1-301)
T3 sequence: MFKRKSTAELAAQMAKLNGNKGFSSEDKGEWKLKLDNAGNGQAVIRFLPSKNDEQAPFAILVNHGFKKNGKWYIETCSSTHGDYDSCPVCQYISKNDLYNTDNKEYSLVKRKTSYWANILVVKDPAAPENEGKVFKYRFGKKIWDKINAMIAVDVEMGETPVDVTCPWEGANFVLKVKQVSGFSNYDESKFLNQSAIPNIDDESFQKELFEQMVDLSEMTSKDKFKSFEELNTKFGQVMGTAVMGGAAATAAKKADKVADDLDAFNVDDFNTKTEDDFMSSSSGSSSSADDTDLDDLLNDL
Description: as §1, §2, §3

Measured: binding result

B1: competitor oligonucleotide (ssDNA)
DNA: CTGTATTAGAAGTACATGCTGATCAAGTGACA
binds: all assays above
